# In paper PMC4437529:
# How the values were obtained:
# Assay in all cases: purified protein
# Assay type in all cases: biochemical, Trichomonas vaginalis
# Settings in all cases: NADPH co-substrate, 100 mM potassium phosphate pH 5.5, 37 °C
# [1] = test system: Cc1cc2nc3c(=O)[nH]c(=O)nc-3n(C[C@H](O)[C@H](O)[C@H](O)COP(=O)(O)O)c2cc1C
# [2] = test system: Cc1cc2nc3c(=O)[nH]c(=O)nc-3n(C[C@H](O)[C@H](O)[C@H](O)COP(=O)(O)OP(=O)(O)OC[C@H]3O[C@@H](n4cnc5c(N)ncnc54)[C@H](O)[C@@H]3O)c2cc1C
# [3] = test system: Cc1cc2nc3c(=O)[nH]c(=O)nc-3n(C[C@H](O)[C@H](O)[C@H](O)CO)c2cc1C
Substance,Km [1] [µM],Km [2] [µM],Km [3] [µM]
Flavin reductase 1 (FR1) (Trichomonas vaginalis G3),10 ± 1.4,16.5 ± 2.5,–
Flavin reductase 5 (FR5) (Trichomonas vaginalis G3),186.9 ± 30.3,267.4 ± 21.6,94.4 ± 11.5
Flavin reductase 6 (FR6) (Trichomonas vaginalis G3),160 ± 23.9,192.1 ± 12.2,97.5 ± 28.8
